Experiments:
Conditions in all cases: both partners purified
[1] = molecular target: T1, IQGAP1 GRD1-RGCT S1441E (aa 877-1558) (human, UniProt P46940 877-1558, S1441E); assay: fluorescence polarisation; IQGAP1 variant titrated to mGppNHp-bound RHO protein (1 μM); equilibrium Kd (eKd), quadratic fit; 30 mM Tris/HCl pH 7.5, 150 mM NaCl, 5 mM MgCl2, 3 mM DTT, 25 °C
T1 construct: human IQGAP1 aa 877-1558 with the phosphomimetic mutation S1441E, from the vector pET46 EkLIC; source: E. coli (pLysS BL21(DE3), CodonPlusRIL or BL21(Rosetta)), purified (Ni-NTA, gel filtration)
T1 sequence (looked up): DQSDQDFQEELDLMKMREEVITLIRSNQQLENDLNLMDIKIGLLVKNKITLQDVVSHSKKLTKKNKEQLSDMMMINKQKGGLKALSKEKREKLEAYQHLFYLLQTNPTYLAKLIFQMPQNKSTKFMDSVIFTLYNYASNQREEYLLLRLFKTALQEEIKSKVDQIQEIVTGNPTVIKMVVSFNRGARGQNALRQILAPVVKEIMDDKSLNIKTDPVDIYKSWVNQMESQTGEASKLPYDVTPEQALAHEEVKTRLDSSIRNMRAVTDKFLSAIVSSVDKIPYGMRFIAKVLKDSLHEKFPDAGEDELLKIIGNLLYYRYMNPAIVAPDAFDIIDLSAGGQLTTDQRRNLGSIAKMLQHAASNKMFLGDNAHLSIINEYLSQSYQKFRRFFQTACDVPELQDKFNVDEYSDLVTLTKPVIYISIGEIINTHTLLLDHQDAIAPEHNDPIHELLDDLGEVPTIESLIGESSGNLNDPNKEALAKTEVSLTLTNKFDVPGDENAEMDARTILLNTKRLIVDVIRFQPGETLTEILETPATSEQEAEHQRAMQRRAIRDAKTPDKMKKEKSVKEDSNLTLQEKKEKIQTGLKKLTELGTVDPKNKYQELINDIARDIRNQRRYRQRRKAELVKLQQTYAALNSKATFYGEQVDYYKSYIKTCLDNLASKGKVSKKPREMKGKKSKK

[2] = molecular target: T2, IQGAP1 GRD1-CT (aa 863-1657) (human, UniProt P46940 863-1657); assay: stopped-flow fluorometry; tGppNHp (tamra-GppNHp)-bound CDC42 or CDC42 Q61L (0.2 μM) rapidly mixed with IQGAP1 variant (2-10 μM GRD1-CT for Q61L); Kd = koff/kon; 30 mM Tris-HCl pH 7.5, 10 mM KH2PO4/K2HPO4, 5 mM MgCl2, 3 mM DTT
T2 construct: human IQGAP1, GRD, RGCT and CT domains, aa 863-1657; The GST tag was cleaved 'if needed'; also called C-terminal half of IQGAP1; C-terminal 795 amino acids of IQGAP1
T2 sequence (looked up): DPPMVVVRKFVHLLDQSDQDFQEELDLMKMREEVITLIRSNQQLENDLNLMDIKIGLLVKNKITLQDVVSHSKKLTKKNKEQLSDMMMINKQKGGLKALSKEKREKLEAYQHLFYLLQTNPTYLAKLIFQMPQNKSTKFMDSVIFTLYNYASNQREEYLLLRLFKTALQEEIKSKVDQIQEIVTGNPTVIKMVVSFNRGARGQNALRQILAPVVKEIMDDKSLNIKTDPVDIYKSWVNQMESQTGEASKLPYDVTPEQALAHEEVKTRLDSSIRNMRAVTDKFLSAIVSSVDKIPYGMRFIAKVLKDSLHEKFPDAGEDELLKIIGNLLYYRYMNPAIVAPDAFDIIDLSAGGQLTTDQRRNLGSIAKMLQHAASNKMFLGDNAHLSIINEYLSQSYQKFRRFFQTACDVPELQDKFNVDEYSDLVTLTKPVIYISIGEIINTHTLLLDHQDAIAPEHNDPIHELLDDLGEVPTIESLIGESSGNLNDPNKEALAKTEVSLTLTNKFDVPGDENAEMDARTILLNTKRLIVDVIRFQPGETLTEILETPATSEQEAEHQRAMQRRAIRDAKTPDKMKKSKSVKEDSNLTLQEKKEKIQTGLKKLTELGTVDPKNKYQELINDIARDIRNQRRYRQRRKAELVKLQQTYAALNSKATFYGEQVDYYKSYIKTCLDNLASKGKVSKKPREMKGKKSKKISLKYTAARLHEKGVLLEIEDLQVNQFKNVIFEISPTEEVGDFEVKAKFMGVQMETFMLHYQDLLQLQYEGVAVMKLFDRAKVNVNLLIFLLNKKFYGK

[3] = molecular target: T3, IQGAP1 GRD1-RGCT S1443E (aa 877-1558) (human, UniProt P46940 877-1558, S1443E); assay: as above
T3 construct: human IQGAP1 aa 877-1558 with the phosphomimetic mutation S1443E (printed as S1143E in the methods, S1443E everywhere else), from the vector pET46 EkLIC; source: E. coli (pLysS BL21(DE3), CodonPlusRIL or BL21(Rosetta)), purified (Ni-NTA, gel filtration)
T3 sequence (looked up): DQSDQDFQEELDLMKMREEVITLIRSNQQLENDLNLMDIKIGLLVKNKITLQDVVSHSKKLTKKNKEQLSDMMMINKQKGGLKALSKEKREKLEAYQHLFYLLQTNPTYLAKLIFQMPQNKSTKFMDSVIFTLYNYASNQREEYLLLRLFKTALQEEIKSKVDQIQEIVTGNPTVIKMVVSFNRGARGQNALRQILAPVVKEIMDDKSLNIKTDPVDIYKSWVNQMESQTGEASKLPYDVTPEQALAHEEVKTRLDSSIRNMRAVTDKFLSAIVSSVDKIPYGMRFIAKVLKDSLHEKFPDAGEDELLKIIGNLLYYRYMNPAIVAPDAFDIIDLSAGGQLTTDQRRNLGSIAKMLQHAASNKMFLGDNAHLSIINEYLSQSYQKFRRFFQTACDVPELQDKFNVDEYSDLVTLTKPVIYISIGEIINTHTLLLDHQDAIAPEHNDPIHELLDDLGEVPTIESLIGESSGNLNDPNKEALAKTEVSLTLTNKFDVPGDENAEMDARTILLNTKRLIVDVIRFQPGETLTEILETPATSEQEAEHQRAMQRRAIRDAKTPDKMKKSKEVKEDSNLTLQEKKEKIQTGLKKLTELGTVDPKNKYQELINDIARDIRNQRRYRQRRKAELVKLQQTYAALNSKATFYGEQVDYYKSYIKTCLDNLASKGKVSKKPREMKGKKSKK

B1: CDC42 (aa 1-178) (domain or fragment)
chain: not shown
notes: human CDC42, C-terminally truncated, aa 1-178; Loaded non-covalently with mGppNHp, tGppNHp, mGDP or non-fluorescent GppNHp; the nucleotide is named in the format of each assay; also called CDC42^WT; CDC42-mGppNHp
Kd [1]: 3.6 µM
Kd [2]: 0.38 µM
Kd [3]: 4.19 µM

Source: publication PMC5159498, “IQGAP1 Interaction with RHO Family Proteins Revisited” (The Journal of Biological Chemistry, 2016)
